In publication doi:10.1101/737593 (bioRxiv, 2019):

B1: hexa-histidine affinity tagged (His6)-MrpC (natural protein, Myxococcus xanthus, UniProt Q9FDC4 1-248, looked up)
chain: MHGFNRPLGPIGSNVVAPLQTTSSGMMVTANKLVPGQEAIDFKGYFKVESFPHNSTIYRPGDNTDRVYLLKSGRVRLMRIGKNSTRSVVSILRPGDLFGELFRPEGTPIEEMAIAAGEAEVWSIEGRDFRAQLEARPALAVDVVRAYAERVRALRKRVLGLTFKEVPARLADTLLTLVEAHGERCPHGGETDLRGITQQDLADLVGASRSFVSTLINEMKREGVLGNVGRILCVRDQKALRKIAGKEK
B2: His6-MrpC_(AAAA) (natural protein, Myxococcus xanthus, UniProt Q9FDC4 1-248, looked up)
chain: MHGFNRPLGPIGSNVVAPLQAAAAGMMVTANKLVPGQEAIDFKGYFKVESFPHNSTIYRPGDNTDRVYLLKSGRVRLMRIGKNSTRSVVSILRPGDLFGELFRPEGTPIEEMAIAAGEAEVWSIEGRDFRAQLEARPALAVDVVRAYAERVRALRKRVLGLTFKEVPARLADTLLTLVEAHGERCPHGGETDLRGITQQDLADLVGASRSFVSTLINEMKREGVLGNVGRILCVRDQKALRKIAGKEK
B3: His6-MrpC lacking the 25 amino terminal residues (His6-MrpC_(ΔN25)) (domain or fragment, Myxococcus xanthus, UniProt Q9FDC4 26-248, looked up)
chain: MMVTANKLVPGQEAIDFKGYFKVESFPHNSTIYRPGDNTDRVYLLKSGRVRLMRIGKNSTRSVVSILRPGDLFGELFRPEGTPIEEMAIAAGEAEVWSIEGRDFRAQLEARPALAVDVVRAYAERVRALRKRVLGLTFKEVPARLADTLLTLVEAHGERCPHGGETDLRGITQQDLADLVGASRSFVSTLINEMKREGVLGNVGRILCVRDQKALRKIAGKEK

Molecular target: the molecule itself
Assay: SEC

| Protein | stoichiometry N |
| --- | --- |
| B1 | 2 |
| B2 | 2 |
| B3 | 2 |
